The test system of series [1] is SMARCAD1 (dephosphorylated with CIP) (Homo sapiens). In words: FP.
Series [2] addresses histones: H3-H4 (Alexa Fluor 488–H4) and H2A-H2B (Atto647N H2B) mixed at 10 nM (human). In words: FRET or BRET.
For series [3] the target is unchanged. In words: FRET or BRET. This is another data set of the same source. (BRET reads energy transfer from a luciferase to a nearby fluorophore.)
The target of series [4] is 7 N11 nucleosome labeled at H4 E63C with Alexa Fluor 488 (human) (UniProt P04908). The series can be described thus: fluorescence polarisation. (Fluorescence polarisation rises when a labelled molecule tumbles more slowly, as on binding a larger partner.)
Series [5] has as its target refolded histones H3-H4 labeled with Alexa Fluor 488 on H4 (human) (UniProt P68431). In words: fluorescence polarisation.

As usually defined, the Kd is a measure of binding affinity in units of concentration. Read a low Kd as higher affinity.

Like-named read-outs stand apart in the source and are kept apart here.

Regarding “7N11 nucleosome (165 bp), Alexa Fluor 488 at H4 E63C”, in series [1], the Kd stood at 90 nM. In turn, 147-bp 601 DNA gave a Kd in series [1] of 80 nM. In series [1] (H3 N-terminal tail deleted), TLH3 nucleosome (tailless H3) showed a dissociation constant (Kd) of 330 nM. In the case of TLH4 nucleosome (tailless H4), the equilibrium dissociation constant (Kd) in series [1] (H4 N-terminal tail deleted) was 110 nM. For “dephosphorylated SMARCAD1 (from UniProt Q9H4L7 1-1026) (enzyme)”, the Kd was determined as 2.1 nM in series [2], 1.3 nM in series [3], 90 nM in series [4] and 4 nM in series [5].

The values are drawn from PMC8519567.
